Experimental data reported in PMC3474958, “pH-sensitive Self-associations of the N-terminal Domain of NBCe1-A Suggest a Compact Conformation under Acidic Intracellular Conditions” (Protein and Peptide Letters, 2012).

Assays:
[1] = molecular target: NtNBCe1-A (cytoplasmic N-terminal domain of the electrogenic Na/HCO3 cotransporter NBCe1-A, SLC4A4) (UniProt Q9Y6R1); assay: Dynamic light scattering (DLS), batch mode; settings: pH slightly acidic (6.5 by the Figure 1 caption and Discussion); 150 mM NaCl; 50mM Tris at every pH
NtNBCe1-A (cytoplasmic N-terminal domain of the electrogenic Na/HCO3 cotransporter NBCe1-A, SLC4A4) (UniProt Q9Y6R1), sequence (Q9Y6R1 whole entry, the tested form may be a part): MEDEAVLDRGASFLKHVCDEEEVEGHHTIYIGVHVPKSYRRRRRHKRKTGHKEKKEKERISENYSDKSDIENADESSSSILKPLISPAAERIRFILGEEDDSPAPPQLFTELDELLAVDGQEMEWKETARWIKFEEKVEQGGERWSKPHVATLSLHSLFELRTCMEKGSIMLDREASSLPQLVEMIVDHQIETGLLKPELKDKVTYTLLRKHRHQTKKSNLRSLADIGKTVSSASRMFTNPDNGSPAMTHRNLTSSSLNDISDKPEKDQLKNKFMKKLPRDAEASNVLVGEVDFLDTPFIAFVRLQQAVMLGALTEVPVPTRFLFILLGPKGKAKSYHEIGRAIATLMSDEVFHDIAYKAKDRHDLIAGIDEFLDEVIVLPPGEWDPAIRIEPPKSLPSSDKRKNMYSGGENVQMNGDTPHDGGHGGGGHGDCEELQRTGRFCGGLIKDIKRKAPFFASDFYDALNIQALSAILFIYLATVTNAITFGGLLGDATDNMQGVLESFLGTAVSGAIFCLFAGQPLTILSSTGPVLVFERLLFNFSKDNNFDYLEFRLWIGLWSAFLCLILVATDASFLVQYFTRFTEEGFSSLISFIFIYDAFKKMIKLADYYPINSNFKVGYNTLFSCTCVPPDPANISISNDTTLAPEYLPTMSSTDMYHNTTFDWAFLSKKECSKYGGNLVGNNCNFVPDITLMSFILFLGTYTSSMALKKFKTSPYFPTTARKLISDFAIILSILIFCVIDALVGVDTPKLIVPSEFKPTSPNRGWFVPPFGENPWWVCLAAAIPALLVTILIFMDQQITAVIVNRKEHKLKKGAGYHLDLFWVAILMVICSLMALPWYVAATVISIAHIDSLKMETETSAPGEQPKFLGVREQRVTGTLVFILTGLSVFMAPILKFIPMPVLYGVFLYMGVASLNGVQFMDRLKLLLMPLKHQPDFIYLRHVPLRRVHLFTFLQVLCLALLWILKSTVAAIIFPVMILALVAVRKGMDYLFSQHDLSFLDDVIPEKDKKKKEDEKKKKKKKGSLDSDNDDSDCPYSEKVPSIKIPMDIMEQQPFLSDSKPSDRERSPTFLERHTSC

[2] = molecular target: NtNBCe1-A (cytoplasmic N-terminal domain of the electrogenic Na/HCO3 cotransporter NBCe1-A, SLC4A4) (UniProt Q9Y6R1+Q9Y6R1); assay: Dynamic light scattering (DLS), batch mode; settings: pH 7.4; 150 mM NaCl; 50mM Tris at every pH
NtNBCe1-A (cytoplasmic N-terminal domain of the electrogenic Na/HCO3 cotransporter NBCe1-A, SLC4A4) (UniProt Q9Y6R1+Q9Y6R1), sequence (Q9Y6R1 whole entry, looked up, the tested form may be a part, one chain of several): as the sequence (Q9Y6R1 whole entry, the tested form may be a part) above

[3] = molecular target: NtNBCe1-A (cytoplasmic N-terminal domain of the electrogenic Na/HCO3 cotransporter NBCe1-A, SLC4A4) (UniProt Q9Y6R1); assay: Size-exclusion chromatography with multi-angle light scattering and refractive index detection (MALS-SEC); settings: pH 11.5; 150mM NaCl; 50mM Tris at every pH analysed
[4] = molecular target: the molecule itself; assay: SEC-MALS; ~2 mg/ml (0.5 ml) on Superdex-200 HR 10/30; 50 mM Tris, 150 mM NaCl, 1 mM TCEP; neutral pH; monomer to dimer
[5] = molecular target: the molecule itself; assay: SEC-MALS; neutral pH, 0 mM against 10 mM bisulfite

Molecule: NtNBCe1-A (cytoplasmic N-terminal domain of the electrogenic Na/HCO3 cotransporter NBCe1-A, SLC4A4)
- average hydrodynamic radius (DLS) [1]: 4.6 nm (theoretical 4.2 nm for pure dimers); monodisperse, Pd < 10%
- average hydrodynamic radius (DLS) [2]: increase to 5.0 nm at neutral pH (theoretical 5.6 nm for pure tetramers), consistent with a small amount of dimer-dimer interactions
- average molar mass (MALS-SEC) [3]: 42.6 kDa (theoretical monomer 40.6 kDa); monomer predominates

B1: cytoplasmic, N-terminal domain of NBCe1-A (residues 1 to 362) (domain or fragment, human, UniProt Q9Y6R1-2 1-362, looked up)
chain: MSTENVEGKPSNLGERGRARSSTFLRVVQPMFNHSIFTSAVSPAAERIRFILGEEDDSPAPPQLFTELDELLAVDGQEMEWKETARWIKFEEKVEQGGERWSKPHVATLSLHSLFELRTCMEKGSIMLDREASSLPQLVEMIVDHQIETGLLKPELKDKVTYTLLRKHRHQTKKSNLRSLADIGKTVSSASRMFTNPDNGSPAMTHRNLTSSSLNDISDKPEKDQLKNKFMKKLPRDAEASNVLVGEVDFLDTPFIAFVRLQQAVMLGALTEVPVPTRFLFILLGPKGKAKSYHEIGRAIATLMSDEVFHDIAYKAKDRHDLIAGIDEFLDEVIVLPPGEWDPAIRIEPPKSLPSSDKRKNM
notes: NBCe1-A, sodium-bicarbonate cotransporter variant 1A (SLC4 family), cytoplasmic N-terminal domain, residues 1 to 362; theoretical mass of the monomer 40.6 kDa, of the dimer 81.2 kDa; Exists in a concentration- and pH-dependent equilibrium of monomer, dimer and higher-order clusters; also called NtNBCe1-A; NtNBCe1
- stoichiometry N [4]: 2
- fold increase of high-order self-associations with bisulfite against none [5]: ~2 fold
